Source: PMC3794954, “An Improved SELEX-Seq Strategy for Characterizing DNA-Binding Specificity of Transcription Factor: NF-κB as an Example”

B1: probe b (GGGACTTTCCC) (dsDNA)
DNA 1: AGTTGAGGGGACTTTCCCAGGC
DNA 2: GCCTGGGAAAGTCCCCTCAACT
B2: positive dsDNA (dsDNA)
DNA 1: ACTGTCTGAGGAGTGTCGTGTGCTAAAGGGACTTTCCAAAACGACTCAGCACCACTTCACTCAC
DNA 2: GTGAGTGAAGTGGTGCTGAGTCGTTTTGGAAAGTCCCTTTAGCACACGACACTCCTCAGACAGT

Columns and labels:
NF-kB p50 [1] = target: T1, NF-kB p50 (UniProt P19838 1-433); assay: EMSA; higher affinity than the 3' T probe; 1x DBB (from 5x): 10 mM Tris-HCl pH 7.5, 50 mM NaCl, 0.5 mM EDTA, 3 mM MgCl2, 1% glycerol, 0.5 mg/ml BSA, 0.05% NP-40, 0.01 mM DTT; room temperature 60 min; 6%; settings: protein: commercial; chain copies: 2; label: biotin at ends; blunt
NF-kB p50 [2] = target: T1, NF-kB p50; assay: EMSA; no polydI-dC; 1x DBB (from 5x): 10 mM Tris-HCl pH 7.5, 50 mM NaCl, 0.5 mM EDTA, 3 mM MgCl2, 1% glycerol, 0.5 mg/ml BSA, 0.05% NP-40, 0.01 mM DTT; room temperature 60 min; 6%; settings: protein: commercial; chain copies: 2; label: 5' FAM on reverse strand (primer P-R); blunt

T1 sequence (P19838 1-433): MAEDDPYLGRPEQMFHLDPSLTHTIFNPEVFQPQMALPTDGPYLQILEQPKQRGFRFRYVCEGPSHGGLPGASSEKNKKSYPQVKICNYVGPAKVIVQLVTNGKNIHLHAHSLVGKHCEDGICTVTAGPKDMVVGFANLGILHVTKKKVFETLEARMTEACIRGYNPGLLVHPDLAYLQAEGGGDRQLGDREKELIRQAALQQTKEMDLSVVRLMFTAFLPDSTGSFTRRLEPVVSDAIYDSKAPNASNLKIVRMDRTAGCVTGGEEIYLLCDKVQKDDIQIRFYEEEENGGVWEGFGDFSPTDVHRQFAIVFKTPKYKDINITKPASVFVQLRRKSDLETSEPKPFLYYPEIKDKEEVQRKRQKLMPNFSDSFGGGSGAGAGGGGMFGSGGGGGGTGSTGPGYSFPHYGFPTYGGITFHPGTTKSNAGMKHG

| Binder | binding result (NF-kB p50 [1]) | binding result (NF-kB p50 [2]) |
| --- | --- | --- |
| B1 | binds |  |
| B2 |  | binds |
